In patent publication US20020123082A1 one finds p27 half-life, pulse chase analysis in NIH-3T3 cells data, which are given here for one substance.

This experiment addresses human p27, wild type (human) (UniProt P46527). The experiment can be described thus: cell-based or functional assay.

human p27, wild type (human), sequence (P46527 whole entry): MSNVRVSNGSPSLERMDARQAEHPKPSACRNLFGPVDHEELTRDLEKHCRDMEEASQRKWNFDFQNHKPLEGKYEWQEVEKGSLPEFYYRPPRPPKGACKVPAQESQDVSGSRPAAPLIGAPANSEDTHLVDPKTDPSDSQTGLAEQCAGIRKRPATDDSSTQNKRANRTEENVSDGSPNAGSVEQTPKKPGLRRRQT

Take “(ΔF)Skp2, F-box deleted Skp2 mutant lacking residues 113-152 (from UniProt Q13309 1-112; Q13309 141-424)”: the p27 half-life, pulse chase analysis in NIH-3T3 cells came to 3 h.
